Test results published in the supplement of paper PMC10201428.
± gives the standard deviation of the averaged measurements.

Key:
[1] = tested on: VchCAST RNA-guided transposition machinery (E. coli BL21(DE3) host, lacZ target); assay: relative integration efficiency (T-RL orientation) vs wild-type transposon end (log2 (normalized fold change)); transposon end mutated: right end (5 bp flank + 75 bp right end); higher = more efficient transposition
How it was run: (§1)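 In E. coli BL21(DE3), a T7-driven effector plasmid was paired with a pUC57 mini-transposon donor containing 1549 left-end or 1849 right-end barcoded transposon variants. Cells grew on plates with 0.1 mM IPTG at 37°C for 18 h. Relative integration efficiency was derived from Illumina reads of genomic integration junctions against input plasmids, as a log-transformed output/input barcode fold change normalised to reference barcodes.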

[2] = tested on: VchCAST RNA-guided transposition machinery (E. coli BL21(DE3) host, lacZ target); assay: relative integration efficiency (T-LR orientation) vs wild-type transposon end (log2 (normalized fold change)); transposon end mutated: right end (5 bp flank + 75 bp right end); higher = more efficient transposition
How it was run: as §1

“ACATTTGTTGATACAACCATAAAATGATAATTACACCCATAAAGGGATAATTATCACACCCATAAATTGATATTGCCTCTGATCATAGTCAGACCAACATTGCTACGACCCGTATTCGCACCGACAC” was tested. Which “relative integration efficiency (log2)” value [1] did it give?
The value was -0.447 ± 0.064.

And the “relative integration efficiency (log2)” value [2]?
The value was -0.969 ± 0.58.

With “ACATTTGTTGATACAACCATAAAATGATAATTACACCCATAAAGGTCGCCGGCGACACAAACGCCCGGTCGCGGTAAGAGGATCATAGTCAGACCAACATTGCTACGACCCGTATTCGCACCGACAC” as the sequence, how does the “relative integration efficiency (log2)” value [1] read?
The value was -2.2 ± 0.37.

And the “relative integration efficiency (log2)” value [2]?
The value was 0.613 ± 0.011.

Which results are given for “ACATTTGTTGATACAACCATAAAATGATAATTACACCCATAAAGGTCTAATTATCACACCCATAAATTGATATTGCCTCTGATCATAGTCAGACCAACATTGCTACGACCCGTATTCGCACCGACAC”?
relative integration efficiency (log2) [1]: -1.77 ± 0.13; relative integration efficiency (log2) [2]: -1.72 ± 0.31

With “ACATTTGTTGATACAACCATAAAATGATAATTACACCCATAAATACATAATTATCACACCCATAAATTGATATTGCCTCTGATCATAGTCAGACCAACATTGCTACGACCCGTATTCGCACCGACAC” as the sequence, how does the “relative integration efficiency (log2)” value [1] read?
The value was -0.763 ± 0.18.

What about the “relative integration efficiency (log2)” value [2] of the same sequence?
Its value is -0.737 ± 0.026.

How did the “relative integration efficiency (log2)” value [1] turn out when “ACATTTGTTGATACAACCATAAAATGATAATTACACCCATAAATACTAAATTATCACACCCATAAATTGATATTGCCTCTGATCATAGTCAGACCAACATTGCTACGACCCGTATTCGCACCGACAC” was run?
The value was -1.56 ± 0.23.

And the “relative integration efficiency (log2)” value [2]?
The value was -1.26 ± 0.24.

For “ACATTTGTTGATACAACCATAAAATGATAATTACACCCATAAATCTGAAATTATCACACCCATAAATTGATATTGCCTCTGATCATAGTCAGACCAACATTGCTACGACCCGTATTCGCACCGACAC”, which “relative integration efficiency (log2)” value [1] is on record?
Its value is -0.888 ± 0.057.

What about the “relative integration efficiency (log2)” value [2] of the same sequence?
The value was -1.08 ± 0.29.

Which results are given for “ACATTTGTTGATACAACCATAAAATGATAATTACACCCATAAATGGATAATTATCACCCCCAATTTAACTATAACGCTCTGATCATAGTCAGACCAACATTGCTACGACCCGTATTCGCACCGACAC”?
relative integration efficiency (log2) [1]: -1.3 ± 0.18; relative integration efficiency (log2) [2]: 1.64 ± 0.048

How did the “relative integration efficiency (log2)” value [1] turn out when “ACATTTGTTGATACAACCATAAAATGATAATTACACCCATAAATGGATCATTATCACACCCAATTTAACTATAACGCTCTGATCATAGTCAGACCAACATTGCTACGACCCGTATTCGCACCGACAC” was run?
Its value is -1.63 ± 0.33.

What about the “relative integration efficiency (log2)” value [2] of the same sequence?
The value was 1.07 ± 0.2.

“ACATTTGTTGATACAACCATAAAATGATAATTACACCCATAAATGGATCATTATCACCCCCAATTTAACTATAACGCTCTGATCATAGTCAGACCAACATTGCTACGACCCGTATTCGCACCGACAC” was tested. Which “relative integration efficiency (log2)” value [1] did it give?
Its value is -1.44 ± 0.18.

And the “relative integration efficiency (log2)” value [2]?
The value was 1.15 ± 0.28.

With “ACATTTGTTGATACAACCATAAAATGATAATTACACCCATAAATGGATTATTATCACACCCAATTTAACTATAACGCTCTGATCATAGTCAGACCAACATTGCTACGACCCGTATTCGCACCGACAC” as the sequence, how does the “relative integration efficiency (log2)” value [1] read?
The value was -1.59 ± 0.23.

What about the “relative integration efficiency (log2)” value [2] of the same sequence?
The value was 0.865 ± 0.44.

For “ACATTTGTTGATACAACCATAAAATGATAATTACACCCATAAATGTATAATTATCACACCCATAAATTGATATTGCCTCTGATCATAGTCAGACCAACATTGCTACGACCCGTATTCGCACCGACAC”, which “relative integration efficiency (log2)” value [1] is on record?
Its value is -0.553 ± 0.026.

What about the “relative integration efficiency (log2)” value [2] of the same sequence?
Its value is -1.04 ± 0.38.

Which “relative integration efficiency (log2)” value [1] does the source give for “ACATTTGTTGATACAACCATAAAATGATAATTACACCCATAAATGTCGAATTATCACACCCATAAATTGATATTGCCTCTGATCATAGTCAGACCAACATTGCTACGACCCGTATTCGCACCGACAC” here?
Its value is -1.83 ± 0.081.

What about the “relative integration efficiency (log2)” value [2] of the same sequence?
Its value is -2.54 ± 0.58.

What does the source list for “ACATTTGTTGATACAACCATAAAATGATAATTACACCCATAAATGTCGCCGGCGACACAAACGCCCGGTCGCGGTAAGAGGATCATAGTCAGACCAACATTGCTACGACCCGTATTCGCACCGACAC”?
relative integration efficiency (log2) [1]: -1.73 ± 0.3; relative integration efficiency (log2) [2]: 1 ± 0.17

What does the source list for “ACATTTGTTGATACAACCATAAAATGATAATTACACCCATAAATTCATAATTATCACCCCCAATTTAACTATAACGCTCTGATCATAGTCAGACCAACATTGCTACGACCCGTATTCGCACCGACAC”?
relative integration efficiency (log2) [1]: -1.95 ± 0.33; relative integration efficiency (log2) [2]: 1.06 ± 0.079

What does the source list for “ACATTTGTTGATACAACCATAAAATGATAATTACACCCATAAATTCATCATTATCACACCCAATTTAACTATAACGCTCTGATCATAGTCAGACCAACATTGCTACGACCCGTATTCGCACCGACAC”?
relative integration efficiency (log2) [1]: -2.36 ± 0.48; relative integration efficiency (log2) [2]: 1.42 ± 0.023

How did the “relative integration efficiency (log2)” value [1] turn out when “ACATTTGTTGATACAACCATAAAATGATAATTACACCCATAAATTCATCATTATCACCCCCAATTTAACTATAACGCTCTGATCATAGTCAGACCAACATTGCTACGACCCGTATTCGCACCGACAC” was run?
The value was -1.8 ± 0.25.

What about the “relative integration efficiency (log2)” value [2] of the same sequence?
Its value is 1.45 ± 0.16.

With “ACATTTGTTGATACAACCATAAAATGATAATTACACCCATAAATTCATTATTATCACACCCAATTTAACTATAACGCTCTGATCATAGTCAGACCAACATTGCTACGACCCGTATTCGCACCGACAC” as the sequence, how does the “relative integration efficiency (log2)” value [1] read?
Its value is -2.74 ± 0.49.

What about the “relative integration efficiency (log2)” value [2] of the same sequence?
Its value is 0.845 ± 0.28.

Which results are given for “ACATTTGTTGATACAACCATAAAATGATAATTACACCCATAAATTCTATATTATCACACCCATAAATTGATATTGCCTCTGATCATAGTCAGACCAACATTGCTACGACCCGTATTCGCACCGACAC”?
relative integration efficiency (log2) [1]: -2.002 ± 0.013; relative integration efficiency (log2) [2]: -0.688 ± 0.11

How did the “relative integration efficiency (log2)” value [1] turn out when “ACATTTGTTGATACAACCATAAAATGATAATTACACCCATAAATTCTTAATTATCACACCCATAAATTGATATTGCCTCTGATCATAGTCAGACCAACATTGCTACGACCCGTATTCGCACCGACAC” was run?
Its value is -1.43 ± 0.18.

And the “relative integration efficiency (log2)” value [2]?
Its value is -1.33 ± 0.28.

With “ACATTTGTTGATACAACCATAAAATGATAATTACACCCATAAATTGAATATTATCACACCCATAAATTGATATTGCCTCTGATCATAGTCAGACCAACATTGCTACGACCCGTATTCGCACCGACAC” as the sequence, how does the “relative integration efficiency (log2)” value [1] read?
The value was -1.1 ± 0.27.

What about the “relative integration efficiency (log2)” value [2] of the same sequence?
The value was -0.409 ± 0.19.

For “ACATTTGTTGATACAACCATAAAATGATAATTACACCCATAAATTGAATTATATCACACCCATAAATTGATATTGCCTCTGATCATAGTCAGACCAACATTGCTACGACCCGTATTCGCACCGACAC”, which “relative integration efficiency (log2)” value [1] is on record?
The value was -1.65 ± 0.026.

What about the “relative integration efficiency (log2)” value [2] of the same sequence?
Its value is -0.447 ± 0.17.

With “ACATTTGTTGATACAACCATAAAATGATAATTACACCCATAAATTGAGCATTATCACACCCATAAATTGATATTGCCTCTGATCATAGTCAGACCAACATTGCTACGACCCGTATTCGCACCGACAC” as the sequence, how does the “relative integration efficiency (log2)” value [1] read?
The value was -0.525 ± 0.0063.

And the “relative integration efficiency (log2)” value [2]?
Its value is -0.422 ± 0.13.

What does the source list for “ACATTTGTTGATACAACCATAAAATGATAATTACACCCATAAATTGAGCCGGCGACACAAACGCCCGGTCGCGGTAAGAGGATCATAGTCAGACCAACATTGCTACGACCCGTATTCGCACCGACAC”?
relative integration efficiency (log2) [1]: -1.02 ± 0.23; relative integration efficiency (log2) [2]: 1.83 ± 0.037

Which “relative integration efficiency (log2)” value [1] does the source give for “ACATTTGTTGATACAACCATAAAATGATAATTACACCCATAAATTGAGCCGTATCACACCCATAAATTGATATTGCCTCTGATCATAGTCAGACCAACATTGCTACGACCCGTATTCGCACCGACAC” here?
The value was -1.03 ± 0.093.

What about the “relative integration efficiency (log2)” value [2] of the same sequence?
The value was -1.21 ± 0.12.

“ACATTTGTTGATACAACCATAAAATGATAATTACACCCATAAATTGATAAAAATCACACCCATAAATTGATATTGCCTCTGATCATAGTCAGACCAACATTGCTACGACCCGTATTCGCACCGACAC” was tested. Which “relative integration efficiency (log2)” value [1] did it give?
Its value is -0.355 ± 0.081.

What about the “relative integration efficiency (log2)” value [2] of the same sequence?
Its value is 0.324 ± 0.4.

How did the “relative integration efficiency (log2)” value [1] turn out when “ACATTTGTTGATACAACCATAAAATGATAATTACACCCATAAATTGATAAAATACACACCCATAAATTGATATTGCCTCTGATCATAGTCAGACCAACATTGCTACGACCCGTATTCGCACCGACAC” was run?
The value was -0.37 ± 0.071.

And the “relative integration efficiency (log2)” value [2]?
Its value is -0.0186 ± 0.38.

For “ACATTTGTTGATACAACCATAAAATGATAATTACACCCATAAATTGATAAGGATCACACCCATAAATTGATATTGCCTCTGATCATAGTCAGACCAACATTGCTACGACCCGTATTCGCACCGACAC”, which “relative integration efficiency (log2)” value [1] is on record?
The value was -0.665 ± 0.083.

And the “relative integration efficiency (log2)” value [2]?
The value was -0.0336 ± 0.22.
